Consider 57 substances from the supplement of paper PMC12042874.

This series is described as follows: amyloid nucleation score (Sup35N fusion, yeast selection) (log enrichment); library NNK2; higher = more nucleation; inactive = no reads after selection. Summed up: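 Peptides of 20 random codons fused to Sup35N were expressed in psi-negative yeast, induced 24 hours with 100 μM copper sulfate, then grown 7 days at 30°C on medium lacking adenine and uracil. Input and output plasmid inserts were Illumina-sequenced. Nucleation score is the DiMSum log enrichment of output over input reads, centred on the mode score of non-aggregating sequences, excluding sequences with under 100 input reads. Random libraries had three technical output replicates.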

± gives the uncertainty stated by the source.

As to QWCYSAVYSMLVSKRL, the amyloid nucleation score is 2.68 ± 0.078.
In the case of CYSLYLRS it was -0.018 ± 1.1; in that of LRSCSCIGKLDEEPGGFACA, -0.956 ± 0.78; in that of YNLCSSCNIQWWCSRMHQQK, 8.858 ± 0.055.
In the case of DGFRVCDMFGHAWGVENIPF it was 0.086 ± 0.31; in that of LYFDR, -0.417 ± 1.1.
In the case of CGTLINADRPAWH, the amyloid nucleation score was -0.593 ± 0.35.
Under TEAFKGLSLS stands 0.184 ± 0.49; under NKVFSFDYVVNNE, “inactive”; under VDDFELMLYAMVVNGLELLD, -0.19 ± 1.
For the substance NVRFY, the amyloid nucleation score result is “inactive”.
In the case of KGWNMHSPMRALQHAETVGT it was 0.859 ± 0.3; in that of ASRWHLIAESLSLSAVLNSF, “inactive”.
In the case of FFGGYYYKLSQKLLRIAHYH it was “inactive”; in that of TKRMLERVTFFVHWCWLWSV, 1.09 ± 0.15; in that of MHCSESSYYFAILRARHVLL, 1.43 ± 0.12.
Under WSDGLSPVKLVRLS stands 3.91 ± 0.094; under SYLKYVDWQTFKVTWCAGGN, -0.38 ± 0.54.
On to RIASLTSLGGNMNCAVHSFE, for which the amyloid nucleation score was -0.427 ± 1.1.
In the case of YTKFANSHFIGLNRSCWSNE it was -0.238 ± 0.8; in that of LLLKPMFRVIILMYARVCMY, -1.08 ± 1.1; in that of CSALLYW, 1.29 ± 0.61.
Under TFKSNLV stands 0.092 ± 0.17.
As for STCFVCFFTYVNSYIVLFT, the amyloid nucleation score worked out at 5.63 ± 0.082.
In the case of SHVCYSRNIH it was 1.06 ± 0.26; in that of CQLLMFGSMYVHSYERGTYW, 2.67 ± 0.064; in that of ITLFDHRSSKTTLKDFAENT, -0.137 ± 1.1.
Under YTGYGTWNLNIRNACNRVSW stands “inactive”; under FCLDLWCKGFLYYTQCVNGW, 4.08 ± 0.063; under FSNSTIFDVHAQVLGDFERP, -0.254 ± 1.
In the case of SVAVPWGFTSYSCVRLGGFN it was 3.06 ± 0.14; in that of CWQMRGKLFHS, 0.983 ± 0.14; in that of ALGHR, -0.079 ± 0.45.
In turn, YNDVCLCNGSLGWKLVLE returned an amyloid nucleation score of -0.177 ± 1.
Under YVTPSNLARNKIQRFMASLI stands 0.436 ± 0.8.
Under CAGGFGLKPAFVYEFWCKSI stands -1.17 ± 1.
PRRYLTIPLSFFLHNSIIGI: the amyloid nucleation score entry is “inactive”.
Under QTNTGIVESQRSVCLNKIAR stands 0.234 ± 0.17.
As for NFRSVFFAMCRSCVF, the amyloid nucleation score was -0.145 ± 0.25.
Under NIRTKILLGY stands 0.006 ± 0.44; under LRRYYQCGTRLLIRFRMLEV, 1 ± 0.34; under RELRQPNK, “inactive”.
In the case of KCTFMTDFMIIDEVMYWNRC it was 1.35 ± 0.46; in that of VAVCMWTTNVCVI, 7.804 ± 0.042; in that of YFYYRFGHDVVF, “inactive”.
Under DTIGAATLTITVWNSFMVGP stands 4.15 ± 0.076; under RHVRMISHELNEDTCYTCIL, -0.536 ± 1.1; under GFKILIEFWSATGRLQ, 3.97 ± 0.078.
Take SSLWTCGFIELRPRVLSMGS: the amyloid nucleation score turned out to be 0.327 ± 0.57.
Under SPHNTARLESAEDQSSMCEP stands 1.55 ± 0.23; under VMLNWKMVYRTRDFNLQSYD, 1.85 ± 0.15; under AIFGFTVVLVMFMRFLQDTC, 0.732 ± 0.22.
Under LLFIVCRISLNIVGQVA stands -0.137 ± 0.53; under FAFTPIC, -1.59 ± 1.
For SIGKYLCYA, the amyloid nucleation score was determined as 2.38 ± 0.057.
Consider WAATITDRYRCL, for which the amyloid nucleation score came out at 0.35 ± 0.35.
Under SILLPPFSRAFDSPRIYITP stands -0.82 ± 0.55.
